Assays:
[1] = biological target: human cytoplasmic γ-actin (human) (UniProt P63261)
[2] = biological target: skeletal muscle α-actin (rabbit) (UniProt P68135)
[3] = biological target: human cytoplasmic β-actin (human) (UniProt P60709)
[4] = biological target: human cytoplasmic γ-actin (human) (UniProt P63261); remark: listed apart in the source
[5] = biological target: skeletal muscle α-actin (rabbit) (UniProt P68135); remark: listed apart in the source
[6] = biological target: human cytoplasmic β-actin (human) (UniProt P60709); remark: listed apart in the source
[7] = biological target: human cytoplasmic γ-actin (human) (UniProt P63261); remark: listed apart in the source

| K (app,actin): F-actin concentration for half-maximal activation of steady-state ATPase (NADH-coupled assay, 25°C) [1] [µM] | kcat of actin-activated steady-state ATPase [1] [s⁻¹] | K (app,actin): F-actin concentration for half-maximal activation of steady-state ATPase (NADH-coupled assay, 25°C) [2] [µM] | kcat of actin-activated steady-state ATPase [2] [s⁻¹] | K (app,actin): F-actin concentration for half-maximal activation of steady-state ATPase (NADH-coupled assay, 25°C) [3] [µM] | kcat of actin-activated steady-state ATPase [3] [s⁻¹] | Motility rate: sliding velocity of tropomyosin-decorated F-actin in the in vitro motility assay, 30°C [4] [nm/s] | Motility rate: sliding velocity of tropomyosin-decorated F-actin in the in vitro motility assay, 30°C [5] [nm/s] | Motility rate: sliding velocity of tropomyosin-decorated F-actin in the in vitro motility assay, 30°C [6] [nm/s] | ATP turnover in the flash photolysis experiment (5 µM F-actin), relative to α-actin [7] [fold] | kcat of actin-activated steady-state ATPase (activity in the presence of 100 µM F-actin) [1] [s⁻¹] | kcat of actin-activated steady-state ATPase (activity in the presence of 100 µM F-actin) [2] [s⁻¹] | kcat of actin-activated steady-state ATPase (activity in the presence of 100 µM F-actin) [3] [s⁻¹] | Substance |
| --- | --- | --- | --- | --- | --- | --- | --- | --- | --- | --- | --- | --- | --- |
| 11.3 | 0.75 | 12.3 | 0.35 | 12.3 | 0.53 |  |  |  |  |  |  |  | human myosin-7A motor domain construct (amino acids 1–747) fused with the artificial lever arm and EYFP (from UniProt Q13402 1-747) (domain or fragment) |
| 88 | 0.77 | 80.2 | 0.18 | 94.6 | 0.81 | 94.6 | 76.3 | 84.2 |  |  |  |  | human nonmuscle myosin-2A motor domain (residues 1–775) fused with two Dictyostelium discoideum α-actinin repeats (from UniProt P35579 1-775) (domain or fragment) |
| 86.9 | 0.63 | 82 | 0.15 | 95.1 | 0.67 | 32.7 | 30.1 | 35.2 | 3 |  |  |  | human nonmuscle myosin-2B motor domain (residues 1–782) fused with two Dictyostelium discoideum α-actinin repeats (from UniProt P35580 1-782) (domain or fragment) |
| > 100 |  | > 100 |  | > 100 |  | 61.2 | 51.7 | 60.9 |  | 0.36 | 0.17 | 0.53 | human nonmuscle myosin-2C1 splice variant motor domain (residues 1–807) fused with two Dictyostelium discoideum α-actinin repeats (domain or fragment) |
